In publication PMC2577338:

Assays:
[1] = biological target: S. cerevisiae ribosomes with L10 R7L (S. cerevisiae) (UniProt P41805)
[2] = biological target: S. cerevisiae ribosomes with L10 Y9N (S. cerevisiae) (UniProt P41805)
[3] = biological target: wild-type S. cerevisiae ribosomes (wild-type L10) (S. cerevisiae) (UniProt P41805)
[4] = biological target: S. cerevisiae ribosomes with L10 R7Q (S. cerevisiae) (UniProt P41805)
[5] = biological target: S. cerevisiae ribosomes with L10 R7P (S. cerevisiae) (UniProt P41805)
[6] = biological target: S. cerevisiae ribosomes with L10 Y9C (S. cerevisiae) (UniProt P41805)
[7] = biological target: S. cerevisiae ribosomes with L10 Y11C (S. cerevisiae) (UniProt P41805)

“eEF2 (eukaryotic elongation factor 2) (from UniProt P32324 1-842) (natural protein)” showed a Kd [1] of 10.7 nM, a Kd [2] of 9.7 nM and a Kd [3] of 10.8 nM. The Kd [4] was 6.1 nM, the Kd [5] was 6.6 nM and the Kd [6] was 5.2 nM. The Kd [7] was 16.6 nM.
